These results are taken from patent US20150098945A1 (Daiichi Sankyo, published 2015).

Assay [1] has as its target T1, N-terminal FLAG-tagged cynomolgus monkey ROBO4, cynoROBO4-1 (pCI-FLAG-cynoROBO4-1) (cynomolgus monkey, UniProt Q8WZ75 28-1007 (human entry)).
T1 chain: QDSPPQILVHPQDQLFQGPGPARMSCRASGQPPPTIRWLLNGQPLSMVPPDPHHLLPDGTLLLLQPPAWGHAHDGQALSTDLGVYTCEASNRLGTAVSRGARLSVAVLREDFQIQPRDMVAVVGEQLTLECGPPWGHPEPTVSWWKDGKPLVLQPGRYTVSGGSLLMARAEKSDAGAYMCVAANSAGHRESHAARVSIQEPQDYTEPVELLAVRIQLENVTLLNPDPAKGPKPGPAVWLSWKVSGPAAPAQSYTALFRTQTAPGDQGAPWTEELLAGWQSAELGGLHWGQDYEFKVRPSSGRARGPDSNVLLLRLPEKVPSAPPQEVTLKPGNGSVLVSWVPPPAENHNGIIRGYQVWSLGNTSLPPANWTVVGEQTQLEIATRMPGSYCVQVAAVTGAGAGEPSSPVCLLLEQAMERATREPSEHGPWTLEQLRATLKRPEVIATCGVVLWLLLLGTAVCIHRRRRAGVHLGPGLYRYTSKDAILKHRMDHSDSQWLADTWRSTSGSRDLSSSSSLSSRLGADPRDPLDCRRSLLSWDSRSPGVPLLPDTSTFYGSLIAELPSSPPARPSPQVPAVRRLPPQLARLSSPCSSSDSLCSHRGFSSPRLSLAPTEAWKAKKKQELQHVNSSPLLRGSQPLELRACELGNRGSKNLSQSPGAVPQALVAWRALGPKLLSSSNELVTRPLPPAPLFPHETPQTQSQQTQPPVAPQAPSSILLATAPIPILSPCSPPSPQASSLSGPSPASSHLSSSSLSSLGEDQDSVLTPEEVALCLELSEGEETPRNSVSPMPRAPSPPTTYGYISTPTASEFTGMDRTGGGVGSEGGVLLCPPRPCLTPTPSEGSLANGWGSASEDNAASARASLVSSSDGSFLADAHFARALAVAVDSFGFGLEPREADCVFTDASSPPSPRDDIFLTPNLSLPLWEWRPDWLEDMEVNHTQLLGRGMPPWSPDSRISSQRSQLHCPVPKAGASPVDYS
Nature of the assay: flow cytometry, HEK293 cells transfected with pCI-FLAG-cynoROBO4-1, antibody at 10 µg/mL, anti-mouse IgG FITC; control histogram IgG (Mouse IgG2a). How it is done:
HEK293 cells were inoculated at a concentration of 1.5×10⁶ cells/dish to a 60-mm dish (manufactured by Corning Inc.) and cultured overnight in a DMEM medium containing 10% FBS at 37° C. under 5% CO₂ conditions. On the next day, the HEK293 cells were transfected with pCI-hROBO4, pCI-mROBO4, pCI-raROBO4, pCI-FLAG-cynoROBO4-1, pCI-FLAG-cynoROBO4-2, pCI-hROBO1, pCI-hROBO2, or pCI-hROBO3 using FuGENE6 Transfection Reagent and further cultured overnight at 37° C. under 5% CO₂ conditions. On the next day, the expression vector-transfected cells were treated with TrypLE Express (manufactured by Life Technologies Corp.), washed with PBS containing 5% FBS, and then suspended in PBS containing 5% FBS. The obtained cell suspension was used in flow cytometry analysis.
Each cell suspension prepared in 4)-3-1 was centrifuged, and the supernatant was removed. Then, MAb1 or a negative control Mouse IgG2a was added at a concentration of 10 μg/mL to 2×10⁵ expression vector-transfected cells, and the resulting suspension was left standing at 4° C. for 1 hour. […] Data was analyzed using Flowjo. The histogram of FITC fluorescence intensity was prepared. The antibody was determined to bind in a cross-species manner when the histogram of MAb1 was shifted to a stronger fluorescence intensity region compared with the histogram of the negative control Mouse IgG2a.

The target in assay [2] is T2, rat ROBO4 (pCI-raROBO4-transfected HEK293 cells) (rat, UniProt Q80W87 38-949 at identity 0.93)).
T2 chain: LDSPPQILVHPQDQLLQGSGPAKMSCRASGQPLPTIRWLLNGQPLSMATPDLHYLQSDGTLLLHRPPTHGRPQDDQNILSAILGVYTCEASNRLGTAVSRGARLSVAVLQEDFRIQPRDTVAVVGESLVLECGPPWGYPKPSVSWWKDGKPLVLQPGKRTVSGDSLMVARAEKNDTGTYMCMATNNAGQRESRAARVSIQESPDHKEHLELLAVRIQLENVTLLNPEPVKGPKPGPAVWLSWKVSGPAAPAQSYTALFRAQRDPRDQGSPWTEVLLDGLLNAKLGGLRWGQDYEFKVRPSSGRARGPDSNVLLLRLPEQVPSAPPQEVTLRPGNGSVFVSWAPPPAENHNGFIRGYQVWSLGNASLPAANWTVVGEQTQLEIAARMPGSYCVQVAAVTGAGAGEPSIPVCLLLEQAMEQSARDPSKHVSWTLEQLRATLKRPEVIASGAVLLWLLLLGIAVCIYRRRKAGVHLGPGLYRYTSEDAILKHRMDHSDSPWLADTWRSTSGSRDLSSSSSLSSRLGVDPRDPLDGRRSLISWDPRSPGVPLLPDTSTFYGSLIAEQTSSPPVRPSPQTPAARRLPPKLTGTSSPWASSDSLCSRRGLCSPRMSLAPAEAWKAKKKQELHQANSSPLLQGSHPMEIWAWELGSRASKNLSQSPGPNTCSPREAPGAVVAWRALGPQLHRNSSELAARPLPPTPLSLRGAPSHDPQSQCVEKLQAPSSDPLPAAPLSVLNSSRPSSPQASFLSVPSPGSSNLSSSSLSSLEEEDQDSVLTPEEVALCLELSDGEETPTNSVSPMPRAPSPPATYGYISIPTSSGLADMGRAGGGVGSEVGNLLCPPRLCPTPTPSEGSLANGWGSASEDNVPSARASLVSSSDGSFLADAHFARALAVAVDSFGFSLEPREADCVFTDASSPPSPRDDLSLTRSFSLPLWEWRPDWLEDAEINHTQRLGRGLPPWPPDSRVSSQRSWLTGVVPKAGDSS
Nature of the assay: flow cytometry (FC500), HEK293 cells transfected with pCI-raROBO4, FITC goat anti-human IgG Fc; control histogram IgG (human IgG). For orientation: In flow cytometry, cells or beads pass a laser one at a time.

B1: anti-ROBO4 mouse monoclonal antibody MAb1 (antibody, mouse IgG1, V domains shown)
VH: EVQLVESGGGLVKPGGSLKLSCAASGFTFSTYAMSWVRQTPEKRLEWVATISNGGTYTYYPDSVKGRFTISRDNAENTLYLQMSSLRSEDTAMYFCARLIYYDYLDYWGHGTTLTVSS
VL: DAVMTQTPLSLPVSLGDQASISCRSSQSLENSNGNTYLNWYFQKPGQSPQLLIYRVSNRFSGVLDRFSGSGSGTDFTLKISRVEAEDFGVYFCLQVTHVPWTFGGGTKLEIKR
notes: Mouse IgG1 (gamma1), kappa light chain, purified from hybridoma supernatant; also called parent antibody MAb1
Regarding B1, the binding result in assay [1] is “binds”.

B2: humanized MAb1 antibody H-2143 (antibody, human IgG2, kappa, V domains shown)
VH: EVQLVESGGGLVQPGGSLRLSCAASGFTFSTYAMSWVRQAPGKRLEWVATISQGGTYTYYPDSVKGRFTISRDNAKNTLYLQMNSLRAEDTAVYYCARLIYYDYLDYWGQGTLVTVSS
VL: DIVMTQSPLSLPVTLGEPASISCRSSQSLENENKNLYLNWYLQKPGQSPQLLIYRVSNRFSGVPDRFSGSGSGTDFTLKISRVEAEDVGVYYCLQVTHVPWTFGPGTKVDIKR
notes: Human IgG2 / kappa constant regions; also called hMAb1-H4-type heavy chain + hMAb1-L2-type light chain
As to B2, the binding result in assay [2] was “no binding (tested: 10 µg/mL)”.
